According to patent publication US20240100176A1 (Eli Lilly, published 2024):

How the values were obtained:
[1] = molecular target: T1, hexahistidine tagged human IL-4Rα ECD T108R (human, UniProt P24394 26-232); test: capture ELISA: Ab1 on anti-human IgG Fc, His-tagged receptor at 0.2 µg/mL, anti-His HRP
T1 construct: also called D108R; not shown: hexahistidine tag

[2] = molecular target: T2, hexahistidine tagged human IL-4Rα ECD K2D (human, UniProt P24394 26-232); test: as above
T2 construct: not shown: hexahistidine tag
Description: (§1) Example 2d. […] Briefly, thirty surface amino acid residue substitutions were introduced individually into hexahistidine tagged human IL-4Rα extra cellular domain (ECD) as follows: K2D, E6R, K22D, P26R, T31R, F41A, L42G, L43G, E45R, E52R, G56R, D66R, A71R, Q82G, K87D, E94R, H107A, D108R, P124R, D125R, D143R, R148D, L155R, R160D, S164R, S168R, Q181R, P192R, K195D, or H197G. Each mutant protein having a single amino acid residue substitution as described above was transiently expressed in CHO cells and purified using standard immobilized metal affinity chromatography techniques. […] The plates were then washed 3 times with PBST and the exemplified human IL-4Rα antibody was added to the wells at a final concentration of 1 μg/mL in PBS-casein and incubated for 1 hour at room temperature. The plates were washed 3 times with PBST, the IL-4Rα mutant proteins were serially diluted 5-fold from 1 μg/mL for 3 points. in PBS-casein and added to the plate at 50 μL/well and incubated for 1 hour at room temperature. The plates were washed 3 times with PBST and a 1000-fold dilution of anti-histidine tag antibody HRP conjugate (R&D Systems, Cat. #MAB050H) in PBS-casein was added and incubated for 45 minutes at room temperature. The plates were washed 3 times, TMB substrate (Pierce, Cat. #34028) was added per manufacturer instructions, the reaction was quenched with H₂SO₄, and absorbance was read at 450 nm on an ELISA plate reader.

[3] = molecular target: T3, hexahistidine tagged human IL-4Rα ECD Q181R (human, UniProt P24394 26-232); test: as above
T3 construct: not shown: hexahistidine tag
Description: as §1

[4] = molecular target: T4, hexahistidine tagged human IL-4Rα ECD R148D (human, UniProt P24394 26-232); test: as above
T4 construct: not shown: hexahistidine tag
Description: as §1

[5] = molecular target: T5, hexahistidine tagged human IL-4Rα ECD G56R (human, UniProt P24394 26-232); test: as above
T5 construct: not shown: hexahistidine tag
Description: as §1

[6] = molecular target: T6, hexahistidine tagged human IL-4Rα ECD K195D (human, UniProt P24394 26-232); test: as above
T6 construct: not shown: hexahistidine tag
Description: as §1

[7] = molecular target: T7, hexahistidine tagged human IL-4Rα ECD F41A (human, UniProt P24394 26-232); test: as above
T7 construct: not shown: hexahistidine tag
Description: as §1

[8] = molecular target: T8, hexahistidine tagged human IL-4Rα ECD A71R (human, UniProt P24394 26-232); test: as above
T8 construct: not shown: hexahistidine tag
Description: as §1

[9] = molecular target: T9, hexahistidine tagged human IL-4Rα ECD H107A (human, UniProt P24394 26-232); test: as above
T9 construct: not shown: hexahistidine tag
Description: as §1

[10] = molecular target: T10, hexahistidine-tagged human IL-4Rα extracellular domain (human, UniProt P24394 26-232); test: competition MSD ELISA (solution equilibrium, 37 °C), apparent KD, single experiment
T10 construct: In the MSD assay the plate coat is the His-tagged ECD; also called human IL-4Rα ECD; Wild type receptor; not shown: hexahistidine tag
T10 sequence: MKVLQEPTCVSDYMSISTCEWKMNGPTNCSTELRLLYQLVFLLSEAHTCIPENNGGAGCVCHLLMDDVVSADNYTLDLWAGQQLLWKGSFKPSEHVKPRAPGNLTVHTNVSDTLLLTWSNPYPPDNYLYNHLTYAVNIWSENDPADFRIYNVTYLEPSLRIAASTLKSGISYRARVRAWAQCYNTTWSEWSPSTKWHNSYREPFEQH
Procedure: Example 3a. […] A 96-well multi-array plate (Meso Scale Diagnostics, Cat. #L15XA-3) was coated at 4° C. overnight with 0.5 μg/mL hexahistidine-tagged human or cynomolgus monkey IL-4Rα ECD in phosphate buffered saline (PBS). Following coating, plates were washed 10 times with 200 μL PBST (PBS with 0.05% Tween® 20) and blocked with 300 μL/well of PBS casein blocking buffer (Pierce, Cat. #37528) at 37° C. for 1 hour. Plates were then washed 10 times as above, and 50 μL of the preincubated antibody:IL-4Rα dilution series was transferred to the wells and incubated at 37° C. with 300 rpm shaking for […]. Plates were washed 10 times with PBST, 50 μL of 1 μg/mL anti-human antibody sulfo-tag 20 (Meso Scale Diagnostics, Cat. #R32AJ-1) was added to the plates for the assay of Table 7a, and anti-Human NHP Kappa Light chain SULFO-TAG 20 (Meso Scale Diagnostics, Cat #D20TF-6) was added to the plates for the assay of Table 7b, and plates were incubated at 37° C. with 300 rpm shaking for 30 minutes. Plates were washed 10 times with PBST, 150 μL/well of 1× Read Buffer T was added to the wells and analyzed on a SECTOR® Imager 6000 (Meso Scale Diagnostics) 15 min after buffer addition. The apparent KD is determined by fitting a sigmoidal curve to the electrochemiluminescence (ECL) response vs. log (soluble IL-4Rα concentration) using GraphPad Prism 9. Data is graphed with normalized ECL values.

T8 sequence (P24394 26-232 A96R): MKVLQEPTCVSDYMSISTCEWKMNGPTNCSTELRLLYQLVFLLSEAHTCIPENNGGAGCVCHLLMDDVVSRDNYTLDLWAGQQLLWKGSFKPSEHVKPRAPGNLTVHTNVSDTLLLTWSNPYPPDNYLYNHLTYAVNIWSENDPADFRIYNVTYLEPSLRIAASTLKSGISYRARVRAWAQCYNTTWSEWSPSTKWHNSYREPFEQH
T9 sequence (P24394 26-232 H132A): as the sequence (P24394 26-232 A96R) above, with R71A, H107A counted along it
T7 sequence (P24394 26-232 F66A): as the sequence (P24394 26-232 A96R) above, with F41A, R71A counted along it
T1 sequence (P24394 26-232 T133R): as the sequence (P24394 26-232 A96R) above, with R71A, T108R counted along it
T2 sequence (P24394 other isoform, or with tags, fused parts or gaps): as the sequence (P24394 26-232 A96R) above, with K2D, R71A counted along it
T3 sequence (P24394 26-232 Q206R): as the sequence (P24394 26-232 A96R) above, with R71A, Q181R counted along it
T6 sequence (P24394 26-232 K220D): as the sequence (P24394 26-232 A96R) above, with R71A, K195D counted along it
T5 sequence (P24394 26-232 G81R): as the sequence (P24394 26-232 A96R) above, with G56R, R71A counted along it
T4 sequence (P24394 26-232 R173D): as the sequence (P24394 26-232 A96R) above, with R71A, R148D counted along it

- ELISA (OD450) [1]: 1.82 OD450
- ELISA (OD450) [2]: 1.61 OD450
- ELISA (OD450) [3]: 1.71 OD450
- ELISA (OD450) [4]: 1.6 OD450
- ELISA (OD450) [5]: 1.7 OD450
- ELISA (OD450) [6]: 1.65 OD450
- ELISA (OD450) [7]: 1.54 OD450
- ELISA (OD450) [8]: 1.57 OD450
- ELISA (OD450) [9]: 1.84 OD450
- Kd [10]: 20.8 pM
B1: anti-human IL-4Rα antibody Ab1 (antibody, human IgG4 S228P, kappa)
heavy: QVQLVESGGGLVQPGGSLRLSCVASGFTFSHSSMNWVRQAPGKGLEWVSYISRATGAVYYADSVKGRFTISRDNAKNSLYLQMNSLRDEDTAVYYCAREPVFDYWGQGTLVTVSSASTKGPCVFPLAPCSRSTSESTAALGCLVKDYFPEPVTVSWNSGALTSGVHTFPAVLQSSGLYSLSSVVTVPSSSLGTKTYTCNVDHKPSNTKVDKRVESKYGPPCPPCPAPEFLGGPSVFLFPPKPKDTLMISRTPEVTCVVVDVSQEDPEVKFNWYVDGVEVHNAKTKPREEQFNSTYRVVSVLTVLHQDWLNGKEYKCKVSNKGLPSSIEKTISKAKGQPREPQVYTLPPSREEMTKNQVSLTCLVKGFYPSDICVEWESNGQPENNYKTTPPVLDSDGSFFLYSRLTVDKSRWQQGNVFSCSVMHEALHNHYTQKSLSLSLG
light: DIQMTQSPSAMSASVGDRVTITCRASQDISNYLAWFQQKPGKVPTRLIYAASSLQSGVPSRFSGSGSGTEFTLTISSLQPEDFATYYCLQWSSYPRTFGQGTKVEIKRTVAAPSVFIFPPSDEQLKSGTASVVCLLNNFYPREAKVQWKVDNALQSGNSQESVTEQDSKDSTYSLSSTLTLSKADYEKHKVYACEVTHQGLSSPVTKSFNRGEC
notes: human kappa light chain; also called anti-human IL-4Rα Ab1; unconjugated Ab1
